Experimental data from the supplement of paper PMC10567573.

B1: LARP4 (parent)
chain: WTVANMEEIKKLTTDPDLILEVLR
B2: APBB1IP (parent)
chain: PPEPLSQVSMWDQRWQDHQPLLPI

Variants of: B1
Assay: protein stability index of a GFP-peptide fusion (GPS, HEK-293T) (PSI 1-6); higher = more stable
Conditions: c terminus: a fixed tail appended
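Note: lentivirally expressed fusions sorted by FACS into six bins by GFP to DsRed ratio, PSI derived from sequencing read proportions per bin multiplied by bin number.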

| Variant | protein stability index |
| --- | --- |
| E7T | 1.91 |
| E7G | 2.4 |
| E7A | 1.9 |
| E7N | 2.56 |
| E7M | 1.2 |
| E7K | 1.88 |
| E7C | 1.58 |
| E7V | 1.93 |
| E7H | 1.59 |
| E7R | 1.44 |
| E7I | 1.94 |
| E7Q | 2.28 |
| E7S | 1.7 |
| E7F | 2.55 |
| E7D | 2.23 |
| E7Y | 2.18 |
| W1Q | 2.91 |
| W1K | 2.26 |
| W1C | 1.88 |
| W1Y | 2.01 |
| W1A | 1.9 |
| W1I | 2.25 |
| W1E | 2.75 |
| W1L | 2.14 |
| W1G | 2.63 |

| Variant | protein stability index |
| --- | --- |
| W1T | 2.32 |
| W1R | 2.45 |
| W1S | 2.33 |
| W1M | 2.88 |
| W1D | 3.04 |
| W1V | 2.89 |
| W1F | 2.74 |
| W1N | 2.49 |
| W1P | 2.71 |
| W1H | 2.55 |
| E8R | 2.37 |
| E8W | 1.36 |
| E8N | 2.03 |
| E8T | 1.7 |
| E8F | 1.7 |
| E8A | 1.5 |
| E8D | 2.03 |
| E8M | 1.47 |
| E8G | 1.56 |
| E8H | 2.89 |
| E8P | 1.82 |
| E8S | 1.58 |
| E8L | 3.14 |
| E8Y | 2.73 |
| E8I | 1.72 |

| Variant | protein stability index |
| --- | --- |
| E8Q | 1.68 |
| E8V | 1.4 |
| E8C | 2.25 |
| N5L | 2.55 |
| N5P | 1.76 |
| N5E | 2.47 |
| N5F | 1.98 |
| N5A | 1.29 |
| N5Y | 2.38 |
| N5W | 1.76 |
| N5H | 1.99 |
| N5D | 2.79 |
| N5K | 2.05 |
| N5Q | 2.39 |
| N5G | 1.64 |
| N5S | 1.66 |
| N5T | 1.65 |
| N5R | 1.16 |
| N5C | 2.04 |
| N5V | 1.85 |
| T2D | 2.12 |
| T2P | 3.13 |
| T2W | 2.11 |
| T2M | 1.48 |
| T2C | 2.02 |

| Variant | protein stability index |
| --- | --- |
| T2E | 2.8 |
| T2Q | 1.95 |
| T2I | 1.14 |
| T2Y | 1.05 |
| T2K | 1.87 |
| T2N | 2 |
| T2G | 2.28 |
| T2R | 2.59 |
| T2F | 1.94 |
| T2V | 1.7 |
| T2A | 1.42 |
| T2S | 2.58 |
| T2L | 2.08 |
| T2H | 2.67 |
| M6C | 2.6 |
| M6G | 1.59 |
| M6E | 2.67 |
| M6V | 1.73 |
| M6I | 1.63 |
| M6Y | 1.73 |
| M6N | 2.67 |
| M6K | 1.89 |
| M6R | 2.47 |
| M6F | 1.69 |
| M6L | 2.13 |

| Variant | protein stability index |
| --- | --- |
| M6A | 1.33 |
| M6D | 2.79 |
| M6Q | 2.25 |
| M6H | 1.79 |
| M6P | 2.03 |
| M6S | 2.57 |
| M6W | 1.89 |
| A4W | 1.21 |
| A4G | 2.06 |
| A4V | 1.43 |
| A4L | 1.9 |
| A4E | 2.3 |
| A4H | 1.93 |
| A4T | 1.97 |
| A4Q | 2.61 |
| A4R | 2.45 |
| A4P | 2.05 |
| A4M | 1.5 |
| A4F | 1.69 |
| A4S | 1.9 |
| A4Y | 1.5 |
| A4K | 2.6 |
| A4D | 3.25 |
| A4N | 2.59 |
| A4C | 1.92 |

| Variant | protein stability index |
| --- | --- |
| L12Y | 2.62 |
| L12S | 2.97 |
| L12E | 3.74 |
| L12N | 3.08 |
| L12R | 2.34 |
| L12P | 2.26 |
| L12K | 2.62 |
| L12T | 2.22 |
| L12H | 3.11 |
| L12F | 2.97 |
| L12M | 2.06 |
| L12V | 2.9 |
| L12A | 2.17 |
| L12W | 2.46 |
| L12Q | 3.09 |
| L12I | 2.23 |
| L12C | 3.11 |
| L12G | 2.6 |
| L12D | 3.37 |
| P16I | 1.67 |
| P16C | 1.75 |
| P16V | 1.2 |
| P16D | 2.38 |
| P16E | 2.22 |
| P16M | 2.11 |

| Variant | protein stability index |
| --- | --- |
| P16S | 2.28 |
| P16H | 1.63 |
| P16N | 1.93 |
| P16Q | 1.84 |
| P16A | 1.55 |
| P16Y | 1.91 |
| P16K | 1.59 |
| P16W | 1.43 |
| P16R | 2.25 |
| P16T | 1.89 |
| P16L | 2.21 |
| P16F | 1.63 |
| D17A | 2.09 |
| D15I | 1.18 |
| D15K | 2.05 |
| D15H | 2.21 |
| D15Q | 2.1 |
| D15W | 1.89 |
| D15T | 2 |
| D15Y | 1.38 |
| D15L | 2.1 |
| D15G | 2.05 |
| D15F | 1.7 |
| D15N | 2.14 |
| D15V | 1.59 |

| Variant | protein stability index |
| --- | --- |
| D15S | 1.53 |
| D15M | 2.26 |
| D15R | 1.4 |
| D15C | 1.53 |
| D15P | 1.97 |
| D15E | 3.16 |
| D15A | 1.69 |
| I9H | 2.65 |
| I9V | 2.72 |
| I9C | 2.27 |
| I9W | 2.21 |
| I9G | 2.43 |
| I9S | 1.85 |
| I9T | 1.71 |
| I9A | 2.38 |
| I9M | 2.3 |
| I9Y | 2.31 |
| I9P | 2.49 |
| I9E | 2.75 |
| I9K | 2.5 |
| I9D | 2.76 |
| I9R | 2.5 |
| I9F | 1.87 |
| I9N | 1.93 |
| I9L | 2.16 |

| Variant | protein stability index |
| --- | --- |
| I9Q | 2.14 |
| V3K | 2.19 |
| V3L | 2.41 |
| V3A | 3.11 |
| V3T | 2.18 |
| V3P | 1.92 |
| V3F | 2.32 |
| V3H | 2.5 |
| V3R | 1.24 |
| V3S | 2.21 |
| V3E | 3.01 |
| V3Y | 1.96 |
| V3I | 2.37 |
| V3C | 2.5 |
| V3D | 3.05 |
| V3Q | 2.62 |
| V3M | 2.29 |
| V3N | 2.24 |
| K10Q | 2.88 |
| K10R | 2.52 |
| K10F | 1.93 |
| K10D | 2.49 |
| K10C | 2.02 |
| K10I | 1.54 |
| K10T | 1.71 |

| Variant | protein stability index |
| --- | --- |
| K10G | 1.99 |
| K10A | 2.12 |
| K10H | 1.84 |
| K10Y | 2.03 |
| K10N | 2.13 |
| K10V | 2.07 |
| K10S | 2.07 |
| K10L | 2.68 |
| K10M | 2.56 |
| K10E | 2.51 |
| K10W | 2.68 |
| K10P | 2 |
| T14G | 2.01 |
| T14D | 2.46 |
| T14N | 2.52 |
| T14M | 2.54 |
| T14V | 1.05 |
| T14P | 2.01 |
| T14W | 1.75 |
| T14Q | 2.59 |
| T14R | 2.14 |
| T14Y | 1.65 |
| T14E | 2.44 |
| T14H | 3.88 |
| T14C | 1.77 |

| Variant | protein stability index |
| --- | --- |
| T14F | 1.39 |
| T14L | 1.99 |
| T14I | 2.08 |
| T14A | 2.08 |
| T14K | 2.21 |
| T14S | 1.91 |
| T13W | 1.83 |
| T13S | 1.39 |
| T13G | 2.23 |
| T13F | 1.82 |
| T13N | 1.92 |
| T13L | 2.14 |
| T13Y | 1.86 |
| T13H | 1.97 |
| T13A | 2.24 |
| T13R | 1.82 |
| T13C | 1.88 |
| T13M | 1.87 |
| T13P | 2.24 |
| T13I | 2.04 |
| T13Q | 1.58 |
| T13K | 2.02 |
| T13V | 2.94 |
| T13D | 2.56 |
| T13E | 2.24 |

| Variant | protein stability index |
| --- | --- |
| K11S | 2.8 |
| K11V | 2.29 |
| K11A | 1.7 |
| K11R | 2.52 |
| K11P | 2.46 |
| K11Q | 2.58 |
| K11D | 3.96 |
| K11L | 2.13 |
| K11I | 2.02 |
| K11T | 2.95 |
| K11N | 2.81 |
| K11Y | 3.77 |
| K11W | 2.68 |
| K11F | 2.85 |
| K11M | 1.81 |
| K11H | 3.42 |
| K11C | 2.33 |
| K11E | 3.99 |
| K11G | 2.22 |

Variants of: B2
Assay: as above
Conditions: c terminus: a fixed tail appended

| Variant | protein stability index |
| --- | --- |
| P23Y | 2.06 |
| P23Q | 2.39 |
| P23M | 2.08 |
| P23N | 3.23 |
| P23R | 2.38 |
| P23T | 2.77 |
| P23L | 1.99 |
| P23S | 2.05 |
| P23C | 3.48 |
| P23H | 2.05 |
| P23W | 1.36 |
| P23A | 2.05 |
| P23E | 3.03 |
| P23I | 2.04 |
| P23F | 1.67 |
| P23K | 2.62 |
| P23V | 2.92 |
| I24F | 2.72 |
| I24N | 3.12 |
| I24K | 3.92 |

| Variant | protein stability index |
| --- | --- |
| I24G | 4.44 |
| I24A | 3.26 |
| I24T | 3.62 |
| I24M | 3.24 |
| I24P | 3.79 |
| I24W | 2.04 |
| I24C | 2.69 |
| I24D | 4.43 |
| I24H | 3.58 |
| I24Q | 3.93 |
| I24R | 3.12 |
| I24S | 3.55 |
| I24E | 3.26 |
| I24Y | 3.54 |
| I24L | 3.26 |
| I24V | 3.29 |
| L22T | 3.74 |
| L22V | 3.2 |
| L22Y | 2.44 |
| L22W | 2.4 |
